According to publication PMC12678272:

Tests used:
[1] = target: GST-RILP-L2 (RILP-Like 2, mouse) (mouse) (UniProt Q99LE1); experiment: pull-down; 20 ug GST fusion protein immobilised on glutathione agarose beads, incubated 18 h at 4 C with 500 ug RAW264.7 macrophage lysate (untreated or treated with GSK2578215A); 50 mM HEPES pH 7.4, 150 mM NaCl, 1 mM MgCl2, 1% Triton X-100, phosphatase inhibitors; immunoblot, quantified as percent of total input
[2] = target: GST-RILP-L1 (RILP-Like 1, mouse) (mouse) (UniProt Q9JJC6); experiment: as above
[3] = target: GST-RILP-L2 (RILP-Like 2, mouse) (mouse) (UniProt Q99LE1); experiment: pull-down; 20 ug GST fusion protein immobilised on glutathione agarose beads, incubated 18 h at 4 C with 500 ug RBL cell lysate (untreated, Ion/TPA-activated, or Ion/TPA with LY333531); 50 mM HEPES pH 7.4, 150 mM NaCl, 1 mM MgCl2, 1% Triton X-100, phosphatase inhibitors; immunoblot, quantified as percent of total input
[4] = target: GST-RILP-L1 (RILP-Like 1, mouse) (mouse) (UniProt Q9JJC6); experiment: as above

UniProt Q99LE1, sequence (Q99LE1 whole entry, the tested form may be a part): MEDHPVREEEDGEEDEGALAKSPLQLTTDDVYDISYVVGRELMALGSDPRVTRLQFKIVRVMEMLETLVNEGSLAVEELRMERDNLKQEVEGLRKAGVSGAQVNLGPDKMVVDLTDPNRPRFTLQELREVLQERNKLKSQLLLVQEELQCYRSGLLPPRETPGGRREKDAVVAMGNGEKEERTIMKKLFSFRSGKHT
UniProt Q9JJC6, sequence (Q9JJC6 whole entry, the tested form may be a part): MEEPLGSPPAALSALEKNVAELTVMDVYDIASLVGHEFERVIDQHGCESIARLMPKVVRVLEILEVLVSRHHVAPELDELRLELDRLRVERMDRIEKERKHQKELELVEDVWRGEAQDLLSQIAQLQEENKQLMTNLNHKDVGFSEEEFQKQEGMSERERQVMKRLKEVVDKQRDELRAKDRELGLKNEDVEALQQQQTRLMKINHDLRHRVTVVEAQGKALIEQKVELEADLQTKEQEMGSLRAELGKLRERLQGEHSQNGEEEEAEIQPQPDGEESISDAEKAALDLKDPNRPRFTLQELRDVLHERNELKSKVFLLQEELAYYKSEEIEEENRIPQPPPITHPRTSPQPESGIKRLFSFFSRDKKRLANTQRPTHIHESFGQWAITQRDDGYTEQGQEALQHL

Substance | percent reduction of pull-down after GSK2578215A, against untreated cells [1] [%] | percent reduction of pull-down after GSK2578215A, against untreated cells [2] [%] | percent of total input pulled down [3] [%] | percent reduction of pull-down after LY333531, against Ion/TPA alone [3] [%] | percent of total input pulled down [4] [%] | percent reduction of pull-down after LY333531, against Ion/TPA alone [4] [%]
Rab12 (endogenous, RAW264.7 macrophages) (from UniProt P35283 1-291) (natural protein) | 80 | 50 | – | – | – | –
Rab12 (endogenous, RBL-2H3 cells) (from UniProt P35284 1-291) (natural protein) | – | – | 4 | 90 | 14 | 60
phosphoRab12 (endogenous, Ion/TPA-activated RBL-2H3 cells) (from UniProt P35284 1-291) (natural protein) | – | – | 18 | – | 38 | –
